We go through 19 molecules from patent US20230295310A1 (ABCELLERA BIOLOGICS, published 2023).

The assay deals with human CD3 (human, UniProt P07766 23-207; P04234 22-171; P09693 23-182). The experiment in a line: cell-based or functional assay.
Sequence of human CD3 (P07766 23-207, chain 1 of 3): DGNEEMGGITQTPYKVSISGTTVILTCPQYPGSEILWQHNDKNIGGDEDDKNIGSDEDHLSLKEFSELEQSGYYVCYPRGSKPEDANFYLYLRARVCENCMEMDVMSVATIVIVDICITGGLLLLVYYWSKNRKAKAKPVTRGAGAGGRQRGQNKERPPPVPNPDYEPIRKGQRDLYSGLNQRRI
Sequence of human CD3 (P04234 22-171, chain 2 of 3): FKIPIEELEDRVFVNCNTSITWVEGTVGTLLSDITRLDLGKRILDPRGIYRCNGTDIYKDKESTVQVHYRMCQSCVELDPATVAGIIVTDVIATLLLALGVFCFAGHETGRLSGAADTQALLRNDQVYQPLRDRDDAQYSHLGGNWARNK
Sequence of human CD3 (P09693 23-182, chain 3 of 3): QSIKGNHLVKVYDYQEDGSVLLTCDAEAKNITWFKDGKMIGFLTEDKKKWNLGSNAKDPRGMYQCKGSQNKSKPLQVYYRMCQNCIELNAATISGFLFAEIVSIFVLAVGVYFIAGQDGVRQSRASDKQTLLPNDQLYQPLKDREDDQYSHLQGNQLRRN

B1: mAb 155 (antibody, V domains shown)
VH: EVQLVESGGGLVKTGGSLRLSCVASGFSFKKAWMNWVRQAPGKGLEWVGRIKRNTDGGTADYAAPVKGRFTLSRDDSKKTLFLQMNSLKTEDTAVYYCTTLDSSSYYVGYYYMDVWGKGTTVTVSS
VL: DIQMTQSPSSVSASVGDRVIITCRASQDINNWLAWYQQKPGKAPKLLIYTASSLQSGVPSRFSGSGSGTDFTLTIGSLQPEDFATYYCQQAHSLPISFGQGTRLDIK
For B1, the “CD4 EC50 (nM); CD69/CD25 on human T cells, plate-coated antibody” value (“CD4 EC50 (nM); CD69/CD25” for short) came to 6.25 nM and the “CD8 EC50 (nM); CD69/CD25 on human T cells, plate-coated antibody” value (“CD8 EC50 (nM); CD69/CD25” for short) amounted to 6.29 nM.

B2: mAb 157 (antibody, V domains shown)
VH: EVQLVESGGGLVKTGGSLRLSCVASGFSFKKAWMNWVRQAPGKGLEWVGRIKRTADGGATDYAAPVKGRFTLSRDDSKNTLYLQMNSLKTEDTAVYYCTTLDSSSWYVGYYYMDVWGKGTTVTVSS
VL: DIHMTQAPSSVSASVGDRVTFTCRASQDINNWLAWYQQKPGKAPKLLIYTASSLQSGVPSRFSGSGSGTDFTLTISSLQPEDFATYYCQQAHSLPITFGQGTRLGIK
For B2, the “CD4 EC50 (nM); CD69/CD25” value amounted to 6.42 nM and the “CD8 EC50 (nM); CD69/CD25” value was 6.57 nM.

B3: mAb 166 (antibody, V domains shown)
VH: EVQLVESGGGLVKTGGSLRLSCVASGFSFKKAWMNWVRQAPGRGLEWVGRIKRNTDGGTTDYAAPVKGRFTLSRDDSKNMLYLQMNSLKTEDTAVYYCTTLDSSSLYVGYYYMDVWGKGTTVTVSS
VL: DIQMTQSPSSVSASVGDRVTITCRASQDINNWLAWYQQKPGKAPKLLIYTASSLQSGVPSRFSGSGSGTDFTLTISSLQPEDFATYFCQQAHSLPITFGQGTRLEIT
As to B3, the “CD4 EC50 (nM); CD69/CD25” value worked out at 10.5 nM and the “CD8 EC50 (nM); CD69/CD25” value was 10.6 nM.

B4: mAb 169 (antibody, V domains shown)
VH: EVQLVESGGGLVKTGGSLRLSCVASGFSFKKAWMNWVRQAPGKGLEWVGRIKRNTDGGTADYAAPVKGRFTLSRDDSKKTLFLQMNSLKTEDTAVYYCTTLDSSSYYVGYYYMDVWGKGTTVTVSS
VL: DIQMTQSPSSVSASVGDRVIITCRASQDINNWLAWYQQKPGKAPKLLIYTASSLQSGVPSRFSGSGSGTDFILTIGSLQPEDFATYYCQQAHSLPITFGQGTRLEIK
Regarding B4, the “CD4 EC50 (nM); CD69/CD25” value came to 6.49 nM and the “CD8 EC50 (nM); CD69/CD25” value was 6.67 nM.

B5: mAb 165 (antibody, V domains shown)
VH: EVQLVESGGGLVKTGGSLRLSCVASGFSFKKAWMNWVRQAPGKGLEWVGRIKRNTDGGTADYAAPVKGRFTLSRDDSKRTLYLQMNSLKTEDTAVYYCTTLDSSSRYVGYYYMDVWGKGTTVTVSS
VL: DIQMTQSPSSVSASVGDRVIITCRASQDINNWLAWYQQKPGKVPKLLIYTASSLQSGVPSRFSGSGSGTDFTLTIGSLQPEDFATYYCQQAHSLPITFGQGTRLEIK
Take B5: the “CD4 EC50 (nM); CD69/CD25” value came to 6.48 nM and the “CD8 EC50 (nM); CD69/CD25” value stood at 6.57 nM.

B6: mAb 163 (antibody, V domains shown)
VH: EVQLVESGGGLVKTGGSLRLSCVASGFSFKKAWMNWVRQVPGKGLEWVGRIKRNTDGGTADYAAPVKGRFTLSRDDSKKTLFLQMNSLKTEDTAVYYCTTLDSSSYYVGYYYMDVWGKGTTVTVSS
VL: DIQMTQSPSSVSASVGDRVIITCRASQDINNWLAWYQQKPGKAPKLLIYTASSLQSGVPSRFSGSGSGTDFTLTIGSLQPEDFATYYCQQAHSLPITFGQGTRLEIK
Take B6: the “CD4 EC50 (nM); CD69/CD25” value came to 6.3 nM and the “CD8 EC50 (nM); CD69/CD25” value amounted to 6.99 nM.

B7: mAb 156 (antibody, V domains shown)
VH: EVQLVESGGGLVKTGGSLRLSCVASGFSFKKAWMNWVRQAPGKGLEWVGRIKRNTDGGTADYAAPVKGRFTLSRDDSKKTLFLQMNSLKTEDTAVYYCTTLDSSSYYVGYYYMDVWGKGTTVTVSS
VL: DIQMTQSPSSVSASVGDRVIITCRASQDINNWLAWYQQKAGKAPKLLIYTASSLQSGVPSRFSGSGSGTDFTLTIGSLQPEDFATYYCQQAHSLPITFGQGTRLEIK
In the case of B7, the “CD4 EC50 (nM); CD69/CD25” value stood at 6.25 nM and the “CD8 EC50 (nM); CD69/CD25” value turned out to be 6.25 nM.

B8: mAb 164 (antibody, V domains shown)
VH: EVQLVESGGGLVKTGGSLRLSCVASGFSFKKAWMNWVRQAPGKGLEWVGRIKRNTDGGTADYAAPVKGRFTLSRDDSKKTLFLQMNSLKTEDTAVYYCTTLDSSSYYVGYYYMDVWGKGTTVTVSS
VL: DIQMTQSPSSVSASVGDRVTITCRASQDIKNWLAWYQQKPGKAPKLLIYTASSLQSGVPSRFSGSGSGTDFTLTIGSLQPEDFATYYCQQAHSLPITFGQGTRLEIK
With B8, the “CD4 EC50 (nM); CD69/CD25” value turned out to be 6.84 nM and the “CD8 EC50 (nM); CD69/CD25” value was found to be 6.62 nM.

B9: mAb 146 (antibody, V domains shown)
VH: QVQLVESGGGVVQPGRSLRLSCAASGFTFITYGMHWVRQAPGKGLEWVAVIWYDGSHKYYADSVKGRFTISRDNSKNMLYLQMNSLRVEDTAVYYCARTGITGTTAYFYFDNWGQGTLVTVSS
VL: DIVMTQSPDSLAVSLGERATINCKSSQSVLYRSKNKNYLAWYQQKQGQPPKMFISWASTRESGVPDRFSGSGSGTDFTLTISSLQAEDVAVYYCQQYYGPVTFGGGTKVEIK
B9: the “CD4 EC50 (nM); CD69/CD25” value was 12.5 nM and the “CD8 EC50 (nM); CD69/CD25” value was 12.6 nM.

B10: mAb 153 (antibody, V domains shown)
VH: QVQLVESGGGVVQPGRSLRLSCAASGFTFSTYGMHWVRQAPGKGLEWVAVIWYDGSHKYYSDSVKGRFTISRDNSKNTLYLQMNSLRVEDTAIYYCARTGITGTTAYFYFDSWGQGTLVTVSS
VL: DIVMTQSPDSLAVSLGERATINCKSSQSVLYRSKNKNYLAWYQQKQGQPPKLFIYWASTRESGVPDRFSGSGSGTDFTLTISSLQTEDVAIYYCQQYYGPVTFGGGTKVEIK
On to B10, for which the “CD4 EC50 (nM); CD69/CD25” value came out at 8.76 nM and the “CD8 EC50 (nM); CD69/CD25” value was 8.56 nM.

B11: mAb 167 (antibody, V domains shown)
VH: EVHLVESGGGLVQPGRSLRLSCAASGFTFDDYAMHWVRQAPGKGLEWVSGISWNSGTIGYADSVKGRFTISRDNAKNSLYLEMNSLRAEDTALYYCAKDSSGYGHYYHYYIDVWGTGTTVTVSS
VL: EIVMTQSPATLSVSPGGRATLSCRASQSVGSNLAWYQQKPGQAPRLLIYDASTRATGIPARFRGSGSGTEFTLTISGLQSEDFAVYYCQLYYNWPHFGQGTRLEIK
B11: the “CD4 EC50 (nM); CD69/CD25” value is 6.3 nM and the “CD8 EC50 (nM); CD69/CD25” value was determined as 6.36 nM.

B12: mAb 158 (antibody, V domains shown)
VH: EVQLVESGGGLVQPGRSLRLSCAASGFTFADYTMHWVRQVPGKGLEWVSGISWNSGSVDYADSVKGRFTISRDNAKKTLYLQMNSLRAEDTALYYCAKDSSGYGHYYFYYLDVWGKGTTVTVSS
VL: EIVMTQSPATLSVSPGERATLSCRATQSVSSNLAWYQQKPGQAPRLLIYSTSTRATGIPARFSGSRSGTEFTLTISSLQSEDSAVYYCQQYNNWPHFGQGTRLEIK
As to B12, the “CD4 EC50 (nM); CD69/CD25” value was determined as 6.67 nM and the “CD8 EC50 (nM); CD69/CD25” value is 6.62 nM.

B13: mAb 161 (antibody, V domains shown)
VH: EVQLVESGGGLVQPGRSLRLSCAASGITFADYTMHWVRQAPGKGLEWVSGISWNSGSIDYADSVKGRFTISRDNAKKTLYLQMNRLRAEDTALYYCAKDSSGYGHYYFYYLDVWGKGTTVTVSS
VL: EIVMTQSPATLSVSPGERATLSCRASQSVSNNLAWYQQKPGQAPRLLIYSTSTRATGIPARFSGSRSGTEFTLTISSLQSEDSAVYYCQQYNNWPHFGQGTRLEIK
Regarding B13, the “CD4 EC50 (nM); CD69/CD25” value amounted to 6.76 nM and the “CD8 EC50 (nM); CD69/CD25” value was determined as 7.89 nM.

B14: mAb 162 (antibody, V domains shown)
VH: EVQLVESGGGLVQPGRSLRLSCAASGFTFDNYAMHWVRQAPGKGLEWVSGISWNSGSIGYADSVKGRFTISRDNAKNSLYLELNSLRAEDTALYYCAKDSSGYGYYYNYYMDVWGKGTTVTVSS
VL: EIVMTQSPATLSVSPGERATLSCRASQSVRSNLAWYQQKPGQAPRLLIYGASTRATGIPAKFSGSGSGTEFTLTISSLQSEDFAVYYCQYYYNWPHFGQGTRLEIK
Take B14: the “CD4 EC50 (nM); CD69/CD25” value came to 12.6 nM and the “CD8 EC50 (nM); CD69/CD25” value was found to be 12.7 nM.

B15: mAb 160 (antibody, V domains shown)
VH: EVQLVESGGGLVQPGRSLRLSCAVSGFTFNDYTMHWVRQVPGKGLEWVSGISWNSGSIGYADSVKGRFTISRDNAKNSLYLQMNSLRAEDTALYFCAKDSSGYGHYYYYYMDVWGRGTTVTVSS
VL: EIVMTQSPATLSVSPGERATLSCRASQSVRKNLAWYQQKPGQAPRLLIYGASTRATGIPARFSGSGSGTEFTLTISSLQSEDFAVYYCQLYNNWPHFGQGTRLEIK
For B15, the “CD4 EC50 (nM); CD69/CD25” value turned out to be 6.95 nM and the “CD8 EC50 (nM); CD69/CD25” value was 8.47 nM.

B16: mAb 159 (antibody, V domains shown)
VH: EVQLVESGGGLVQPGRSLRLSCAASGFTFNGYTMHWVRQVPGKGLEWVSGISWNSGSVGYADSVKGRFTISRDNAKNSLFLQMNSLRAEDTALYYCAKDSSGYGHYYYYYMDVWGKGTTVTVSS
VL: EIVMTQSPATLSVSPGERATLSCRASQSVRNNLAWYQQKPGQAPRLLIYGASTRATGIPARFSGSGSGTEFTLTISSLQSEDFALYYCQLYNNWPHFGQGTRLEIK
As to B16, the “CD4 EC50 (nM); CD69/CD25” value came to 12 nM and the “CD8 EC50 (nM); CD69/CD25” value came to 11.9 nM.

B17: mAb 171 (antibody, V domains shown)
VH: EVQLVESGGGLVQPGRSLRLSCAASGFTFADYTMHWVRQAPGQGLEWVSGISWNSGSIDYADSVKGRFIISRDNAKKTLYLQMNSLRAEDTALYYCAKDSSGYGHYYFYYLDVWGKGTTVTVSS
VL: EIVMTQSPATLSVSPGERATLSCRASQSVSSNLAWYQQKPGQAPRLLIYSTSTRATGIPARFSGSRSGTEFTLTISSLQSEDSAVYYCQQYNNWPHFGQGTRLEIK
For the molecule B17, the “CD4 EC50 (nM); CD69/CD25” value was found to be 6.86 nM and the “CD8 EC50 (nM); CD69/CD25” value was found to be 6.71 nM.

B18: mAb 52 (antibody, V domains shown)
VH: QVQLVQSGAEVKKPGASVKVSCKASGYTFTSHDINWVRQATGQGLEWMGWLNPNSGKTGYAQKFQGRVTMARDTSMYTADMELSSLRFEDTAVYYCARVGHYDMWPGFFSFDYWGQGTLVTVSS
VL: DIQMTQSPSSLSASVGDRIIITCRASQDIRNDLGWYQQKPGKAPKRLIYAASSLQSGVPSRFSGSRSGTEFTLTISSLHPEDFATYYCLQHRSYPYTFGQGTNLEIK
As for B18, the “CD4 EC50 (nM); CD69/CD25” value came out at 8.79 nM and the “CD8 EC50 (nM); CD69/CD25” value came out at 9.48 nM.

B19: mAb 170 (antibody, V domains shown)
VH: EVQLVESGGGLVRPGRSLRLSCAASGFTFDDYTMHWVRQAPGKGLEWVSGISWNSGSIGYADSVKGRFTISRDNAKNSLYLQMNSLRAEDTALYYCSKDSSGYGYYLNYSLDVWGKGTTVTVSS
VL: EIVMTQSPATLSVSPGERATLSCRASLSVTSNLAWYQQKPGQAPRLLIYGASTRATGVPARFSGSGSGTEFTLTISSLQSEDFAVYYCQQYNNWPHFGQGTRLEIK
For B19, the “CD4 EC50 (nM); CD69/CD25” value came to 14.6 nM and the “CD8 EC50 (nM); CD69/CD25” value was determined as 15.1 nM.
